Laboratory results reported in patent US20230192796A1.

Key:
[1] = molecular target: Human IL-10Rβ extracellular domain (20-220), biotinylated (human) (UniProt Q08334); test: SPR; IL-10 clone 5.1 alone, immobilized; conditions: ligand
[2] = molecular target: Human IL-10Rβ extracellular domain (20-220), biotinylated (human) (UniProt Q08334); test: SPR; clone 5.1 immobilized, pre-bound with saturating soluble IL-10Rα; conditions: ligand
[3] = molecular target: Human IL-10Rβ on cells (Daudi, Jurkat, YT-1, THP-1 cell lines; primary human PBMC populations) (human) (UniProt Q08334); test: cell-based or functional assay
Sequence of Human IL-10Rβ on cells (Daudi, Jurkat, YT-1, THP-1 cell lines; primary human PBMC populations) (human) (Q08334 20-325): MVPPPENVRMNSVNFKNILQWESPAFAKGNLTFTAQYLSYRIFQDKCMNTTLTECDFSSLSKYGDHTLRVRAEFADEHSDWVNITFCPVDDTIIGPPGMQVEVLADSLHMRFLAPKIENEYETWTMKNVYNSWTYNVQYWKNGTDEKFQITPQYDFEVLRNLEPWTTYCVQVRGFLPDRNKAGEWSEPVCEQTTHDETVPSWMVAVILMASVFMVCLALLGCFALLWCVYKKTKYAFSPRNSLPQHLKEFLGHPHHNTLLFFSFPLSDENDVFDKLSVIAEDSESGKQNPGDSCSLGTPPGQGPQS

Sequence of Human IL-10Rβ extracellular domain (20-220), biotinylated (human) (Q08334 other isoform, or with tags, fused parts or gaps): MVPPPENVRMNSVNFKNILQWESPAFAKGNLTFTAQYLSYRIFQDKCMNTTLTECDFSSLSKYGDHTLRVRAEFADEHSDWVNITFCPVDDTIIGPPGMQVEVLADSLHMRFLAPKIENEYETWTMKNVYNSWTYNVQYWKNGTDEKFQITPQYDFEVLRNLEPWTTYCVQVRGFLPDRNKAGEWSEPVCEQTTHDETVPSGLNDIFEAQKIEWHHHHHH

Row | Substance | Kd [1] [nM] | Kd [2] [nM] | STAT3 activation relative to WT IL-10 in primary NK cells, B cells and T cells [3] [%] | phospho-STAT3 activity in YT-1 cells [3] [%]
1 | Affinity matured IL-10 clone 5.1 (Super-10), soluble (from UniProt P22301 19-178) | 70 | 30 |  | 
2 | IL-10 D25A/E96A variant (10-DE) (from UniProt P22301 19-178) (ligand) |  |  | 35 to 50 | 50
3 | IL-10 D25K variant (from UniProt P22301 19-178) (ligand) |  |  |  | 50
